US20250236683A1 (published 2025)

target: human PAD2 protein (UniProt Q9Y2J8 1-665); experiment: SPR
Sequence (Q9Y2J8 whole entry): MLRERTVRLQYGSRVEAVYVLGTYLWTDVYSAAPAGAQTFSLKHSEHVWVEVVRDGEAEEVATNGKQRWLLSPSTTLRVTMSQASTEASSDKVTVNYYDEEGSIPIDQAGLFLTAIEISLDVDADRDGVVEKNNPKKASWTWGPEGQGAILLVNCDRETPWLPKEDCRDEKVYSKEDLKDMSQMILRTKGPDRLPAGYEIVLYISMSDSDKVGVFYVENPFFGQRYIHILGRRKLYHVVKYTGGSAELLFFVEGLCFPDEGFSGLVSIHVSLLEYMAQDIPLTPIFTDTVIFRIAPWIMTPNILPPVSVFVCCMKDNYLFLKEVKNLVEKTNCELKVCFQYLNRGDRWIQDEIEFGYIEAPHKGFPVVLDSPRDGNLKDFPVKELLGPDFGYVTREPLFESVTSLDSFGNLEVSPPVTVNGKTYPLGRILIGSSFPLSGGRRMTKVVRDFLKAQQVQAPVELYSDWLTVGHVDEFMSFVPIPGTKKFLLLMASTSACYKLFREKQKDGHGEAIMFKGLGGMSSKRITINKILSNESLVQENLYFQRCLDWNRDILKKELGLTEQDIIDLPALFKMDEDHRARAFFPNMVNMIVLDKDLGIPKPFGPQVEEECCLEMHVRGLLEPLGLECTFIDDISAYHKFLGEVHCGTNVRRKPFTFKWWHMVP

Kd	Binder
0.9 nM	CK1-10 (antibody, V domains shown) VH: AVTLDESGGGLQTPGRALSLVCKASGFTFSDYGMGWMRQAPGKGLEWVGAISNRGSHTYYGAAVKGRATISRDNGQSTVRLQLNNLRAEDTGTYYCAKDAGTCISSYGFSCVSAASIDAWGHGTEVIVSS VL: ALTQPSSVSANLGGTVKITCSGGSGSYGGSYYYGWYQQKAPGSAPVTLIYDNTNRPSNIPSRFSGSKSGSTATLTITGVQADDEAVYFCGSIDSISDADIFGAGTTLTVLG
1.68 nM	PK1-16 (antibody, V domains shown) VH: AVTLDESGGGLQTPGGGLSLVCKASGFTFRSYAMYWVRQAPGKGLEWLAGISSSGRYTGYAPAVKGRATISRDNGQSTVRLQLSNLRAEDAGTYYCAKDVYDSWTYANRIDAWGHGTEVIVSS VL: ALTQPSSVSANPGETVKITCSGGGRRGYYGWYQQKSPGSAPVTVIYNNDERPSNIPSRFSGFKSGSTATLTITGVQAEDEAVYYCGSGDTTTDSGIFGAGTTLTVLG
1.37 nM	CK1-14 (antibody, V domains shown) VH: AVTLDESGGGLQTPGGALSLVCKASGFTFTRYAIQWVRQAPGKGLEWVGVINSGGRTLYAPAVKGRATISRDNGQSTVRLQLNNLRAEDTAIYYCVRGGYAYGIETWGHGTEVIVSS VL: ALTQPSSVSANPGETVKITCSGSRYDYGWYQQKSPGSAPVTLIYYNNKRPSDIPSRFSGSKSGSTHTLTITGVQADDEAVYFCGSTDTSNDIFGAGTTLTVLG
